Where two headings read alike, the source gives them in different places.
What was measured:
Test in all cases: biolayer interferometry
calmodulin [1] = target: calmodulin (UniProt P0DP23)
calmodulin [2] = target: calmodulin (UniProt P0DP23); remark: listed apart in the source
calmodulin [3] = target: calmodulin (UniProt P0DP23); remark: listed apart in the source

- Kd (calmodulin [1]): 0.5 nM
- Kd (calmodulin [2]): 0.645 nM
- Kd (calmodulin [3]): 0.65 nM
B1: eNOS (protein)
chain: GNLKSVGQEPGPPCGLGLGLGLGLCGKQGPASPAPEPSRAPAPATPHAPDHSPAPNSPTLTRPPEGPKFPRVKNWELGSITYDTLCAQSQQDGPCTPRCCLGSLVLPRKLQTRPSPGPPPAEQLLSQARDFINQYYSSIKRSGSQAHEERLQEVEAEVASTGTYHLRESELVFGAKQAWRNAPRCVGRIQWGKLQVFDARDCSSAQEMFTYICNHIKYATNRGNLRSAITVFPQRAPGRGDFRIWNSQLVRYAGYRQQDGSVRGDPANVEITELCIQHGWTPGNGRFDVLPLLLQAPDEAPELFVLPPELVLEVPLEHPTLEWFAALGLRWYALPAVSNMLLEIGGLEFSAAPFSGWYMSTEIGTRNLCDPHRYNILEDVAVCMDLDTRTTSSLWKDKAAVEINLAVLHSFQLAKVTIVDHHAATVSFMKHLDNEQKARGGCPADWAWIVPPISGSLTPVFHQEMVNYILSPAFRYQPDPWKGSATKGAGITRKKTFKEVANAVKISASLMGTLMAKRVKATILYASETGRAQSYAQQLGRLFRKAFDPRVLCMDEYDVVSLEHEALVLVVTSTFGNGDPPENGESFAAALMEMSGPYNSSPRPEQHKSYKIRFNSVSCSDPLVSSWRRKRKESSNTDSAGALGTLRFCVFGLGSRAYPHFCAFARAVDTRLEELGGERLLQLGQGDELCGQEEAFRGWAKAAFQASCETFCVGEEAKAAAQDIFSPKRSWKRQRYRLSTQAEGLQLLPGLIHVHRRKMFQATVLSVENLQSSKSTRATILVRLDTAGQEGLQYQPGDHIGICPPNRPGLVEALLSRVEDPPPPTESVAVEQLEKGSPGGPPPSWVRDPRLPPCTLRQALTFFLDITSPPSPRLLRLLSTLAEEPSEQQELETLSQDPRRYEEWKWFRCPTLLEVLEQFPSVALPAPLLLTQLPLLQPRYYSVSSAPNAHPGEVHLTVAVLAYRTQDGLGPLHYGVCSTWLSQLKTGDPVPCFIRGAPSFRLPPDPYVPCILVGPGTGIAPFRGFWQERLHDIESKGLQPAPMTLVFGCRCSQLDHLYRDEVQDAQERGVFGRVLTAFSREPDSPKTYVQDILRTELAAEVHRVLCLERGHMFVCGDVTMATSVLQTVQRILATEGDMELDEAGDVIGVLRDQQRYHEDIFGLTLRTQEVTSRIRTQSFSLQERHLRGAVPWAFDPPGPDTPGP
modifications: Ca2+

From article PMC5641968 (2017)
